“Also recorded” adds a separate entry of the source.
How the values were obtained:
[1] = Fluorescence dequenching liposome leakage (liposome disruption) assay; format: biochemical
Experimental: Liposomes composed of DOPC (1,2-dioleoyl-sn-glycero-3-phosphocholine), DOPC with 25% cholesterol (molar ratio to DOPC), 3:1 DOPC:POPS (1-palmitoyl-2-oleoyl-sn-glycero-3-phospho-L-serine), and 3:1 DOPC:POPS with 25% cholesterol were prepared identically to a final concentration of 5 mM total lipid as previously described (32); lipids from Avanti Polar Lipids. Lipids solubilized in chloroform were dried under nitrogen gas and stored under vacuum for a minimum of 2 hours to remove residual solvent. The dried lipid film was the resuspended in Tris buffer (10 mM Tris, 150 mM NaCl, and 0.02% NaN3 pH 8.0) containing 25 mM Sulforhodamine B (SRB) fluorophore (Sigma) and subjected to 10 sequential freeze thaw cycles in liquid nitrogen. Liposomes were extruded 29 times through 100 nm pore size polycarbonate filters (Avanti Polar Lipids) and purified from free fluorophore using a PD-10 gel filtration column (GE Healthcare) into storage buffer (10 mM Tris, 150 mM NaCl, and 0.02% NaN3 pH 8.0). Liposome size and homogeneity was analyzed by dynamic light scattering (DLS) using a Dynapro Nanostar™ DLS (Wyatt Technologies). On average liposome diameter ranged from 120-130 nm with low polydispersity. Liposomes were stored at 4° C. and used within 5 days of preparation.
Liposome disruption and content leakage was analyzed by fluorescence spectroscopy as previously described (32). […] The solution was rapidly acidified to the target pH by addition of a fixed volume of acidification buffer and incubated for 20 minutes. […] SRB fluorescence is independent of pH within the ranges used here. Finally. Triton X-100 (Sigma) was added to a final concentration of 1% to fully disrupt liposomes. Liposome disruption as indicated by content leakage and SRB dequenching was normalized using the formula [Fω−F(0)]/[F(Max)−F(0)] where F(0) is the average fluorescence intensity before acidification and F(Max) is the average fluorescence intensity ater addition of Triton X-100. All measurements were collected on a Varian Cary Eclipse spectrophotometer using an excitation/emission pairing of […] and 2.5 nm slit widths at 24° C. Any data plotted together was collected using the sum batch of liposomes.

[2] = Native mass spectrometry of pH-induced changes in oligomeric state; format: physicochemical; settings: for pH transition point of disassembly (pH set point, pH0): evaluated from pH 7 down to pH 3; for cooperativity of the pH-induced transition: native MS at different pH values; for reversibility of disassembly: pH lowered with acetic acid, then raised by ammonia or buffer exchange
Experimental: Samples were buffer exchanged twice into 200 mM ammonium acetate (NH4Ac; MilliporeSigma) using Micro Bio-Spin P-6 columns (Bio-Rad). Protein concentrations were determined by UV absorbance using a Nanodrop 2000c spectrophotometer (Thermo Fisher Scientific) and diluted to make up a 10-fold stock solution (50 μM and 16.7 μM monomer and trimer concentration, respectively). 1 μL of this solution was mixed with 9 μL 200 mM NH4Ac/50 mM triethylammonium acetate (TEAA; MilliporeSigma), adjusted with acetic acid (Fisher Scientific) to obtain the desired final pH and incubated on ice for 30 min. […] 5 μL samples were filled into an in-house pulled glass capillary and ionized by nESI at a monomer or a trimer concentration of 5 μM or 1.67 μM respectively. All pH titration data were acquired on an in-house modified SYNAPT® G2 HDMS (Waters Corporation) with a surface-induced dissociation (SID) device incorporated between a truncated trap traveling wave ion guide and the ion mobility cell (39). The following instrument parameters were used spray voltage 0.9-1.3 kV; sampling cone, 20 V; extraction cone, 2 V; source temperature, room temperature; trap gas flow, 4 mL/min; trap bins, 45V. The data were processed with MassLynx™ v4.1 and DriftScope™ v2.1. For relative quantification, charge state series were extracted from DriftScope™, and smoothed spectra (mean; window 20; number of smooths 20) were integrated.
Python scripts were written to generate theoretical models according Equation 1, and curve-fitting to native mass spectrometry data (FIGS. 1, 3, 5) according to Equation 2 by nonlinear least squares using curve fit from scipy.optimize. The free energy estimates for individual n, m, and l layers used in Equation 1 modeling were estimated by solving linear equations as follows: values for the free energy of folding for designs pRO-2 and variants were estimated from GdmCl denaturation experiments (FIG. 11); each of these designs have different numbers of n, m, and l layers, thus series of linear equations relating the number of each layer type to the total free energies of folding were solved to estimate dG values of the individual layers of each type.

B1: SEQ ID NO: 37: pRO2.3, single-chain, GS linkers on all loops, asymmetrized, TEV site opposite to the termini direction (protein)
chain: GSEEEIKRLLEELRKSSEELRRITKELDDLSKELRVGGSGSGSEMLVEHNKLISEHNRIIVENNRIIVEILEAIARVGGSGSGSVEVERILDELRKSSEELDRVTKELKKLTEELDVGGSENLYFQGSGSVEALVRHNVLITRHNDIIVKNNDIINKILKLIAEAVGGSGSGSELERILRELEESTKELRKATEELRRLSEELKVGGSGSGSVEALVRHNEAIVEHNKIIVKNNDIIVKILELITERI
liposome disruption relative to pRO2.3, nanoparticle fusion ([1]; fused at its n-terminus to a nanoparticle): as well as pRO2.3
kinetics of dissociation in the liposome assay ([1]; linked-pH trimer): slower
membrane disruption level (dye leakage over time) ([1]; linked-pH trimer, order of minutes): same membrane disruption levels

B2: pRO-2.1: pRO-2 variant, SEQ ID NO: 3-4 (protein)
chain 1: MGSHHHHHHGSGSENLYFQGSEYEIRKALEELKAALAELKRATASLRAITEELKKNPSEDALVEHNRAIVEHNAIIVEVLRIIAAVLELIVRAIK
chain 2: SEYEIRKALEELKAALAELKRATASLRAITEELKKNPSEDALVEHNRAIVEHNAIIVEVLRIIAAVLELIVRAIK
pH transition point of disassembly (pH set point, pH0) ([2]; native MS): ~3.5 pH

B3: pRO-2.4: pRO-2 variant, SEQ ID NO: 9-10 (protein)
chain 1: MGSHHHHHHGSGSENLYFQGSEYEIRKALEELKAATAELKRATASLRASTEELKKNPSEDALVENNRLIVEHNAIIVEHNRIIAAVLELIVRAIK
chain 2: SEYEIRKALEELKAATAELKRATASLRASTEELKKNPSEDALVENNRLIVEHNAIIVEHNRIIAAVLELIVRAIK
cooperativity of the pH-induced transition [2]: less cooperative
pH transition point of disassembly (pH set point, pH0) ([2]; native MS): higher transition pH
reversibility of disassembly [2]: Re-association was induced

B4: pRO-2.3: pRO-2 variant, SEQ ID NO: 7-8 (protein)
chain 1: MGSHHHHHHGSGSENLYFQGSEYEIRKALEELKASTAELKRATASLRAITEELKKNPSEDALVEHNRAIVEHNAIIVENNRIIAAVLELIVRAIK
chain 2: SEYEIRKALEELKASTAELKRATASLRAITEELKKNPSEDALVEHNRAIVEHNAIIVENNRIIAAVLELIVRAIK
reversibility of disassembly [2]: Re-association was induced

B5: pRO-2.2: pRO-2 variant, SEQ ID NO: 5-6 (protein)
chain 1: MGSHHHHHHGSGSENLYFQGSEYEIRKALEELKAALAELKRATASLRAILEELKKNPSEDAIVEAIRAIVEHNAIIVEVLRIIAAVLELIVRAIK
chain 2: SEYEIRKALEELKAALAELKRATASLRAILEELKKNPSEDAIVEAIRAIVEHNAIIVEVLRIIAAVLELIVRAIK
pH response of oligomeric state (pH-induced disassembly) ([2]; native MS, pH ~7 to ~3): eliminates the pH response altogether; also recorded: no significant pH response

B6: pRO-4: designed heterodimer, SEQ ID NO: 27-28, chains 81 and 82 (protein)
chain 1: MDEEDHLKKLKTHLEKLERHLKLLEDHAKKLEDILKERPEDSAVKESIDELRRSIELVRESIEIFRQSVEEEEGSSHHHHHHSSGENLYFQGDVKELTKILDTLTKILETATKVIKDATKLLEEHRKSDKPDPRLIETHKKLVEEHETLVRQHKELAEEHLKRTR
chain 2: MDEEDHLKKLKTHLEKLERHLKLLEDHAKKLEDILKERPEDSAVKESIDELRRSIELVRESIEIFRQSVEEEEGDVKELTKILDTLTKILETATKVIKDATKLLEEHRKSDKPDPRLIETHKKLVEEHETLVRQHKELAEEHLKRTR
chain 3: MDEEDHLKKLKTHLEKLERHLKLLEDHAKKLEDILKERPEDSAVKESIDELRRSIELVRESIEIFRQSVEEEE
chain 4: GSSHHHHHHSSGENLYFQGDVKELTKILDTLTKILETATKVIKDATKLLEEHRKSDKPDPRLIETHKKLVEEHETLVRQHKELAEEHLKRTR
modifications: Synthetic polpypeptide; (1)..(18) Optional residues
pH transition point of disassembly (pH set point, pH0) ([2]; native MS): ~4 pH

B7: pRO-4 L23A/V130A: pRO-4 mutant heterodimer, SEQ ID NO: 29-30, 83-84 (protein)
chain 1: MDEEDHLKKLKTHLEKLERHLKLAEDHAKKLEDILKERPEDSAVKESIDELRRSIELVRESIEIFRQSVEEEEGSSHHHHHHSSGENLYFQGDVKELTKILDTLTKILETATKVIKDATKLLEEHRKSDKPDPRLIETHKKLVEEHETLARQHKELAEEHLKRTR
chain 2: MDEEDHLKKLKTHLEKLERHLKLAEDHAKKLEDILKERPEDSAVKESIDELRRSIELVRESIEIFRQSVEEEEGDVKELTKILDTLTKILETATKVIKDATKLLEEHRKSDKPDPRLIETHKKLVEEHETLARQHKELAEEHLKRTR
chain 3: MDEEDHLKKLKTHLEKLERHLKLAEDHAKKLEDILKERPEDSAVKESIDELRRSIELVRESIEIFRQSVEEEE
chain 4: GSSHHHHHHSSGENLYFQGDVKELTKILDTLTKILETATKVIKDATKLLEEHRKSDKPDPRLIETHKKLVEEHETLARQHKELAEEHLKRTR
modifications: Synthetic polpypeptide; (1)..(18) Optional residues
pH transition point of disassembly (pH set point, pH0) ([2]; native MS): ~4.6 pH

B8: SEQ ID NO: 38: similar to pRO2.3, TEV site parallel to the termini, aromatic residues on the n-terminal helix (protein)
chain: GSEEEIKRLLEELRKSSEELRRITKELDDLSKELRVGGSGSGSEMLVEHNKLISEHNRIIVENNRIIVEILEAIARVGGSGSGSVEVERILDELRKSSEELDRVTKELKKLTEELDVGGSGSGSVEALVRHNVLITRHNDIIVKNNDIINKILKLIGEAVGGSENLYFQGSGSEFERWLRQLEESTKELRKFTEELRRFSEELKVGGSGSGSVEALVRHNEAIVEHNKAIVKNNDIIVKILELVTERI
liposome disruption better than the pRO2.3 homotrimer ([1]; compared with pRO2.3 homotrimer): 5-10%

B9: pRO-2.3-GS: pRO-2.3 with flexible GS loop, SEQ ID NO: 35-36 (protein)
chain 1: MGSHHHHHHGSGSENLYFQGSEYEIRKALEELKASTAELKRATASLRAITEELKKGGSGSGSEDALVEHNRAIVEHNAIIVENNRIIAAVLELIVRAIK
chain 2: GSEYEIRKALEELKASTAELKRATASLRAITEELKKGGSGSGSEDALVEHNRAIVEHNAIIVENNRIIAAVLELIVRAIK
oligomeric state at pH 7 / neutral pH ([2]; native MS): retains its trimeric assembly at neutral pH
cooperativity of the pH-induced transition [2]: less cooperativity

B10: pRO-2-GS: pRO-2 with flexible GS loop, SEQ ID NO: 33-34 (protein)
chain 1: MGSHHHHHHGSGSENLYFQGSEYEIRKALEELKAATAELKRATASLRAITEELKKGGSGSGSEDALVEHNRAIVEHNAIIVEHNRIIAAVLELIVRAIK
chain 2: GSEYEIRKALEELKAATAELKRATASLRAITEELKKGGSGSGSEDALVEHNRAIVEHNAIIVEHNRIIAAVLELIVRAIK
oligomeric state at pH 7 / neutral pH ([2]; native MS): loses its homogenous trimeric assembly at neutral pH

— patent publication US20220144895A1, “DE NOVO DESIGN OF TUNABLE PH-DRIVEN CONFORMATIONAL SWITCHES” (University of Washington, priority 2019, published 2022)
